Data on 2 molecules can be found in patent publication US6489446 (HSC RESEARCH AND DEVELOPMENT LIMITED PARTNERSHIP, dated 2002).

A value given as a limit tells only on which side of the number the result lay.

Series [1] concerns the molecule itself. Put plainly: coacervation of MFU-2 in solution; self-association.
Series [2] concerns the target T1, matrix of insoluble elastin prepared from chicken aortic tissue (chicken, UniProt P07916 25-750).
T1 construct: mature; Insoluble cross-linked tissue matrix, not a defined soluble protein; also called chicken elastin; chicken elastin matrix
T1 sequence (looked up): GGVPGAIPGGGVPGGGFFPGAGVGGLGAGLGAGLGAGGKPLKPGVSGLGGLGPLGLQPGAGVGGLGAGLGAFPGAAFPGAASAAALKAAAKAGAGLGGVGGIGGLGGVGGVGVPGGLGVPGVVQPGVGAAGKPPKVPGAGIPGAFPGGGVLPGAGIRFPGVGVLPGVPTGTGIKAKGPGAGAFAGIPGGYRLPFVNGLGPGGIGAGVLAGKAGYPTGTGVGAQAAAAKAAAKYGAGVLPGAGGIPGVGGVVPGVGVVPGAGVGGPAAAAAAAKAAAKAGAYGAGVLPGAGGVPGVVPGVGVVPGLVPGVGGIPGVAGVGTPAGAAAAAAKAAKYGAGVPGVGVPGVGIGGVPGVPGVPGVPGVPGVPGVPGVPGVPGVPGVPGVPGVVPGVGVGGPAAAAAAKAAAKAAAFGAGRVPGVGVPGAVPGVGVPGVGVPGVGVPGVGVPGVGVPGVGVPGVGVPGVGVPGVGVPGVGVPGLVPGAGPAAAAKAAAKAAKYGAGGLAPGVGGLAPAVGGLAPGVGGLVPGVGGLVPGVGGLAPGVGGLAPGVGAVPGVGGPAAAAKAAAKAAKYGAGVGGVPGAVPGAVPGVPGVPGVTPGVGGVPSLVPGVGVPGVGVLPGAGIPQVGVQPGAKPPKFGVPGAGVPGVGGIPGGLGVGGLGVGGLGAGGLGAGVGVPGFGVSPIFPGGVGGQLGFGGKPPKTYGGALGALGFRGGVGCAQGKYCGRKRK
Description: estimate from bound radiolabelled MFU-1, assuming a 6 nm cross-sectional diameter. As to the method:
A matrix of insoluble elastin was prepared from chicken aortic tissue by a cyanogen bromide extraction method. This insoluble, non-human elastin matrix was incubated for 16 hours at 37° in phosphate-buffered saline, at pH 7.4, in the presence of radioactively labeled human MFU-1 prepared as described above. The tissue was then washed extensively with phosphate-buffered saline at pH 7.4.
Estimation of surface coverage assumed a cross-sectional diameter of the human MFU-1 of 6 nm. It was estimated that about 1–3 µg of human MFU-1 per mg chicken elastin matrix remained firmly associated with the insoluble matrix of chicken elastin.

B1: MFU-2 of human elastin (other)
chain: FPGFGVGVGGIPGVAGVPGVGGVPGVGGVPGVGISPEAQAAAAAKAAKYGVGTPAAAAAKAAAKAAQFGLVPGVGVAPGVGVAPGVGVAPGVGLAPGVGVAPGVGVAPGVGVAPAIGPEAQAAAAAKAAKYGVGTPAAAAAKAAAKAAQFGLVPGVGVAPGVGVAPGVGVAPGVGLAPGVGVAPGVGVAPGVGVAPAIGP
notes: Tandem duplicate of MFU-1, expressed with techniques similar to those for MFU-1
For B1, the binding result in series [1] was “binds”.

B2: Minimal Functional Unit-1 (MFU-1) of human elastin (other)
chain: GAGGFPGFGVGVGGIPGVAGVPGVGGVPGVGGVPGVGISPEAQAAAAAKAAKYGVGTPAAAAAKAAAKAAQFGLVPGVGVAPGVGVAPGVGVAPGVGLAPGVGVAPGVGVAPGVGVAPAIGPGGVA
modifications: radioactively labeled valine and glycine (only in the chicken elastin experiments of Example 4)
notes: also called human elastin MFU-1; Fraction 1
In the case of B2, the “surface coverage of the chicken elastin matrix” value in series [2] is no more than 200 fold.
